According to patent US6475997B1, “Methods of stimulating phagocytosis” (University of Pennsylvania, priority 1993, dated 2002):

How the values were obtained:
FcγRIIA [1] = biological target: FcγRIIA (UniProt P12318)
FcγRII = details: cited from earlier work
[2] = test system: J32/FcγRIIA and J32-3.2/FcγRIIA T-cell transfectants; experiment: inhibition of sEA phagocytosis in FcγRIIA T-cell transfectants; format: cell-based; details: preincubation of the cells in 10 μg/ml
Method: The ability of these T-cell transfectants to phagocytose IgG-sensitized cells was assessed by incubation with IgG coated sheep erythrocytes (sEA). In both the wild type J32 and mutant J32-3.2 transfectants, a number of the cells were able to phagocytose the sEA (FIG. 12).
Considering that 70%-100% of the cells are expressing FcγRIIA in these transfectants, and presumably are mediating phagocytosis through this receptor, the levels of phagocytosis observed are relatively low when compared, for example, to COS-1 fibroblasts transfected with FcγRIIA (Indik et al, J. Clin. Invest. 88:1766 (1991)). […] Also phagocytosis was inhibited when the transfectants were incubated with sEA at 0° C. instead of 37° C.

[3] = biological target: γ chain (γ subunit of FcγRI and FcγRIIIA); experiment: cell-based or functional assay
FcγRIIA [4] = biological target: FcγRIIA (UniProt P12318); experiment: cell-based or functional assay
[5] = test system: murine macrophages (P388D1); experiment: phagocytosis by WT FcγRI transfected into murine macrophages; format: cell-based
Method: Wild type (WT) and a mutant (MT) FcγRI, engineered to omit the cytoplasmic domain (CYT), were transfected into COS cells and murine macrophages (P388D1). The phagocytic potential of the transformed cells was assessed using IgG-coated RBCs (EA) and RBCs conjugated with Fab anti-human FcγR1 mAb (E-mAb). […] However, both WT and MT FcγRI induced phagocytosis in P388D1. Phagocytosis by WT FcγRI was inhibited by the tyrosine kinase inhibitor tyrphostin 23. Furthermore, activation of FcγRI on monocytes with Fab anti-FcγRI induced tyrosine phosphorylation of FcγRII, determined by anti-phosphotyrosine immunoblots. FcγR1 thus mediates a Ca^2+ signal through its cytoplasmic domain but not phagocytosis. FcγRI induced phagocytosis therefore requires elements, present in macrophages but absent in COS cells, that permit transmembrane communication.

COS-1 cells = experiment: phagocytosis of IgG-coated cells (EA) by FcγRIIIA-transfected COS-1 cells, electron microscopy; format: cell-based; details: COS-1 transfectants
Source text: A FcγRIIIA encoding sequence was transfected into COS-1 cells to study its phagocytic function, determined by electron microscopy, in the absence of other Fc receptors. […] To delineate the region of the γ chain important in phagocytosis, two deletion mutants, were constructed, deleting the C-terminal 7 amino acids or deleting the C-terminal 22 amino acids which have a tyrosine containing conserved motif, Y-X2-L-X7-Y-X2-L (SEQ ID NO:10), present in several Ig gene super family receptors. […] The role of the conserved cytoplasmic tyrosines was then examined.
Further, single chain Fcγ receptor chimeras, consisting of the γ cytoplasmic domain and the a extracellular domain with the transmembrane domain of either FcγRIIIA-γ or FcγRI were able to mediate a phagocytic signal. However, single chain chimeras were not sufficient for full phagocytic activity.

[6] = test system: splenic macrophage Fcγ receptors; details: in vivo; cited from earlier work
splenic macrophage = experiment: in vitro binding of EA by isolated splenic macrophages from treated animals; format: in vivo, guinea pig; details: animals treated 500 μg/kg for 5 days; sham 48±4%, p<0.001
Method: (§1) Human recombinant macrophage colony stimulating factor (hrM-CSF) was studied in vivo using an established model in the guinea pig (Schreiber et al, J. Clin. Invest. 51:575 (1972)). Adult male guinea pigs were treated for 5 days with hrM-CSF (500 μg/kg) and splenic macrophage FcγR function and protein expression were assessed by i) the splenic macrophage clearance of IgG sensitized ^51Cr-guinea pig RBC (EA), ii) the in vitro binding of EA by isolated splenic macrophage, and iii) FACS analysis using monoclonal antibodies with specificity for the two guinea pig splenic macrophage Fcγ receptors, FcγR1,2 and FcγR2. Treatment with hrM-CSF enchanced the clearance of EA by 72±5%. In addition, a greater proportion of isolated splenic macrophages from hrM-CSF treated animals bound EA in vitro: 80±7% vs 48±4% (sham), p<0.001. In vivo hrM-CSF increased the expression of both splenic macrophages Fcγ receptors: 81±6% and 130±10% for FcγR1,2 and FcγR2, respectively. The lowest effective dose of hrM-CSF was 250 μg/kg, increasing the expression of FcγR1,2 by 26±3% and FcγR2 by 42±4%. […] The effect of hrM-CSF required at least 4 days of treatment.

[7] = test system: IgG sensitized 51Cr-guinea pig RBC (EA); experiment: splenic macrophage clearance of IgG sensitized 51Cr-guinea pig RBC (EA), established guinea pig model; format: in vivo
Method: as §1

FcγR2 = experiment: FACS analysis of splenic macrophage Fcγ receptor expression with monoclonal antibodies; format: in vivo, guinea pig
Method: as §1

FcγR1,2 = experiment: as above; format: in vivo, guinea pig
Method: as §1

FcγRI and FcγRII = details: cited from earlier work

## Src
FcγRIIA [1]
  in vitro immune complex kinase assay: phosphorylation of FcγRIIA: FcγRIIA was phosphorylated by Src in this in vitro assay

## GM-CSF: hematopoietic growth factor, granulocyte-macrophage colony-stimulating factor
FcγRII
  effect on monocyte FcγRII expression and function: selectively increase monocyte FcγRII expression and function

## C=C1[C@@H](C)[C@H]2[C@H](Cc3ccccc3)NC(=O)[C@]23[C@H](OC(C)=O)/C=C/[C@@](C)(O)C(=O)[C@@H](C)C/C=C/[C@H]3[C@@H]1O [cytochalasin-D]
[2]
  effect on phagocytosis of sEA: abolished phagocytosis

## Syk (enzyme)
[3]
  enhancement of phagocytosis mediated by FcγRI/γ on co-transfection of Syk in COS-1 cells: 8 fold
  enhancement of phagocytosis mediated by FcγRIIIA/γ on co-transfection of Syk in COS-1 cells: 6.1 fold

## IgG on IgG-sensitized sheep red blood cells (EA) (antibody)
FcγRIIA [4]
  % phagocytic cells, J32-3.2/FcγRIIA bulk transfectants, experiment 2: 5%
  % phagocytic cells, J32-3.2/FcγRIIA bulk transfectants, experiment 3: 13%
  % phagocytic cells, J32-3.2/FcγRIIA bulk transfectants, experiment 4: 17%
  % phagocytic cells, J32-3.2/FcγRIIA bulk transfectants, experiment 6: 6%
  % phagocytic cells, J32/FcγRIIA bulk transfectants, experiment 1: 17%
  % phagocytic cells, J32/FcγRIIA bulk transfectants, experiment 2: 33%
  % phagocytic cells, J32/FcγRIIA bulk transfectants, experiment 3: 25%
  % phagocytic cells, J32/FcγRIIA bulk transfectants, experiment 4: 32%
  % phagocytic cells, J32/FcγRIIA bulk transfectants, experiment 5: 31%
  % phagocytic cells, J32/FcγRIIA bulk transfectants, experiment 6: 14%
  corrected phagocytic index (cP1), J32-3.2/FcγRIIA bulk transfectants, experiment 2 (erythrocytes ingested per 100 cells): 7
  corrected phagocytic index (cP1), J32-3.2/FcγRIIA bulk transfectants, experiment 3 (erythrocytes ingested per 100 cells): 21
  corrected phagocytic index (cP1), J32-3.2/FcγRIIA bulk transfectants, experiment 4 (erythrocytes ingested per 100 cells): 24
  corrected phagocytic index (cP1), J32-3.2/FcγRIIA bulk transfectants, experiment 6 (erythrocytes ingested per 100 cells): 9
  percent of cells that phagocytosed EA, FcγRIIA-infected D58 (Src+) cells: 70 percent
  percent of cells that phagocytosed EA, FcγRIIA-infected SAR6 (Src-) cells: 43 percent
  phagocytic index (P1), J32-3.2/FcγRIIA bulk transfectants, experiment 2 (erythrocytes ingested per 100 cells): 6
  phagocytic index (P1), J32-3.2/FcγRIIA bulk transfectants, experiment 3 (erythrocytes ingested per 100 cells): 18
  phagocytic index (P1), J32-3.2/FcγRIIA bulk transfectants, experiment 4 (erythrocytes ingested per 100 cells): 21
  phagocytic index (P1), J32-3.2/FcγRIIA bulk transfectants, experiment 6 (erythrocytes ingested per 100 cells): 8
  phagocytic index (P1), J32/FcγRIIA bulk transfectants, experiment 1 (erythrocytes ingested per 100 cells): 28
  phagocytic index (P1), J32/FcγRIIA bulk transfectants, experiment 2 (erythrocytes ingested per 100 cells): 22
  phagocytic index (P1), J32/FcγRIIA bulk transfectants, experiment 3 (erythrocytes ingested per 100 cells): 40
  phagocytic index (P1), J32/FcγRIIA bulk transfectants, experiment 4 (erythrocytes ingested per 100 cells): 53
  phagocytic index (P1), J32/FcγRIIA bulk transfectants, experiment 5 (erythrocytes ingested per 100 cells): 51
  phagocytic index (P1), J32/FcγRIIA bulk transfectants, experiment 6 (erythrocytes ingested per 100 cells): 21

## N#CC(C#N)=Cc1ccc(O)c(O)c1 [tyrphostin 23]
[5]
  effect on phagocytosis by WT FcγRI: inhibited
COS-1 cells
  effect on FcγRIIIA phagocytosis: reversibly inhibited phagocytosis

B1: M-CSF: hematopoietic growth factor, macrophage colony stimulating factor (protein, UniProt P09603 33-554, looked up)
Macrophage colony-stimulating …: EEVSEYCSHMIGSGHLQSLQRLIDSQMETSCQITFEFVDQEQLKDPVCYLKKAFLLVQDIMEDTMRFRDNTPNAIAIVQLQELSLRLKSCFTKDYEEHDKACVRTFYETPLQLLEKVKNVFNETKNLLDKDWNIFSKNCNNSFAECSSQDVVTKPDCNCLYPKAIPSSDPASVSPHQPLAPSMAPVAGLTWEDSEGTEGSSLLPGEQPLHTVDPGSAKQRPPRSTCQSFEPPETPVVKDSTIGGSPQPRPSVGAFNPGMEDILDSAMGTNWVPEEASGEASEIPVPQGTELSPSRPGGGSMQTEPARPSNFLSASSPLPASAKGQQPADVTGTALPRVGPVRPTGQDWNHTPQKTDHPSALLRDPPEPGSPRISSLRPQGLSNPSTLSAQPQLSRSHSSGSVLPLGELEGRRSTRDRRSPAEPEGGPASEGAARPLPRFNSVPLTDTGHERQSEGSFSPQLQESVFHLLVPSVILVLLAVGGLLFYRWRRRSHQEPQRADSPLEQPEGSPLTQDDRQVELPV
[6]
  effect on splenic macrophage Fcγ receptors: increase splenic macrophage Fcγ receptors

B2: hrM-CSF: Human recombinant macrophage colony stimulating factor (protein, UniProt P09603 33-554, looked up)
Macrophage colony-stimulating …: B1 Macrophage colony-stimulating …
Splenic macrophage
  proportion of isolated splenic macrophages that bound EA in vitro: 80±7%
[7]; adult male guinea pigs, 500 μg/kg for 5 days
  enhancement of the clearance of EA: 72±5%
[7]; guinea pig
  days of treatment required for the effect: at least 4 days
  lowest effective dose: 0.25 mg/kg
FcγR2; 250 μg/kg
  increase in expression of FcγR2: 42±4%
FcγR2; 500 μg/kg for 5 days
  increase in expression of splenic macrophage FcγR2: 130±10%
FcγR1,2; 250 μg/kg
  increase in expression of FcγR1,2: 26±3%
FcγR1,2; 500 μg/kg for 5 days
  increase in expression of splenic macrophage FcγR1,2: 81±6%

B3: IFN-γ: the cytokine interferon gamma (protein, UniProt P01579 24-161, looked up)
Interferon gamma: QDPYVKEAENLKKYFNAGHSDVADNGTLFLGILKNWKEESDRKIMQSQIVSFYFKLFKNFKDDQSIQKSVETIKEDMNVKFFNSNKKKRDDFEKLTNYSVTDLNVQRKAIHELIQVMAELSPAAKTGKRKRSQMLFRG
FcγRI and FcγRII
  effect on levels of FcγRI and FcγRII: modulate the levels of FcγRI and FcγRII
